Test results taken from patent publication US20250312499A1, “KISSPEPTIN RECEPTOR (KISS1R) TARGETED THERAPEUTICS AND USES THEREOF” (priority 2024, published 2025).
Numbered stars: 1 amine (or outer) side, 2 acyl side, 3 side chain; on linkers, the order of the positions; unused ones are H or OH. Square brackets hold non-standard residues; d marks the D form. * marks the point of attachment. X2 = 4‑amino‑1‑((3-fluoro-4-methylbenzyl)glycyl)piperidine‑4‑carboxylic acid, Cc1ccc(CN(CC(=O)N2CCC(N[*:1])(C(=O)[*:2])CC2)[*:3])cc1F; X10 = 3‑(2-(2-(3-(4-iodophenyl)propanamido)ethoxy)ethoxy)propanoyl, O=C(CCc1ccc(I)cc1)NCCOCCOCCC(=O)*; X6 = 3‑(2-(2-(3-(p-tolyl)propanamido)ethoxy)ethoxy)propanoyl, Cc1ccc(CCC(=O)NCCOCCOCCC(=O)*)cc1; DOTA = O=C(O)CN1CCN(CC(=O)O)CCN(CC(=O)*)CCN(CC(=O)O)CC1; Butanoyl(4-(4-I-phenyl)) = O=C(CCCc1ccc(I)cc1)*; Api(1-amidino) = N=C(N)N1CCC(N)(C(=O)O)CC1; d(γGlu) = O=C(O)[C@@H](CCC(=O)[*:2])N[*:1]; Phe(4-CN) = N#Cc1ccc(C[C@H](N)C(=O)O)cc1; d2Nal = N[C@H](Cc1ccc2ccccc2c1)C(=O)O; Palmitoyl = CCCCCCCCCCCCCCCC(=O)*; Cha = N[C@@H](CC1CCCCC1)C(=O)O; Lauroyl = CCCCCCCCCCCC(=O)*; Octanoyl = CCCCCCCC(=O)*; Ahx = NCCCCCC(=O)O; azaGly = NNC(=O)O

B1: Compound 332 (peptide)
peptide: Octanoyl-[dY]K(DOTA)NTF[azaGly]L[Api(1-amidino)]Y-NH2
SMILES: CCCCCCCC(=O)N[C@H](Cc1ccc(O)cc1)C(=O)N[C@@H](CCCCNC(=O)CN1CCN(CC(=O)O)CCN(CC(=O)O)CCN(CC(=O)O)CC1)C(=O)N[C@@H](CC(N)=O)C(=O)N[C@H](C(=O)N[C@@H](Cc1ccccc1)C(=O)NNC(=O)N[C@@H](CC(C)C)C(=O)NC1(C(=O)N[C@@H](Cc2ccc(O)cc2)C(N)=O)CCN(C(=N)N)CC1)[C@@H](C)O
B2: Compound 323 (peptide)
peptide: X10-[dY]K(DOTA)NTF[azaGly]L[Api(1-amidino)]F-NH2
SMILES: CC(C)C[C@H](NC(=O)NNC(=O)[C@H](Cc1ccccc1)NC(=O)[C@@H](NC(=O)[C@H](CC(N)=O)NC(=O)[C@H](CCCCNC(=O)CN1CCN(CC(=O)O)CCN(CC(=O)O)CCN(CC(=O)O)CC1)NC(=O)[C@@H](Cc1ccc(O)cc1)NC(=O)CCOCCOCCNC(=O)CCc1ccc(I)cc1)[C@@H](C)O)C(=O)NC1(C(=O)N[C@@H](Cc2ccccc2)C(N)=O)CCN(C(=N)N)CC1
B3: Compound 324 (peptide)
peptide: X10-[dY]K(DOTA)NTF[azaGly]L[Api(1-amidino)]Y-NH2
SMILES: CC(C)C[C@H](NC(=O)NNC(=O)[C@H](Cc1ccccc1)NC(=O)[C@@H](NC(=O)[C@H](CC(N)=O)NC(=O)[C@H](CCCCNC(=O)CN1CCN(CC(=O)O)CCN(CC(=O)O)CCN(CC(=O)O)CC1)NC(=O)[C@@H](Cc1ccc(O)cc1)NC(=O)CCOCCOCCNC(=O)CCc1ccc(I)cc1)[C@@H](C)O)C(=O)NC1(C(=O)N[C@@H](Cc2ccc(O)cc2)C(N)=O)CCN(C(=N)N)CC1
B4: Compound 327 (peptide)
peptide: X10-[dY]K(DOTA)NT[Cha][azaGly]L[Api(1-amidino)]W-NH2
SMILES: CC(C)C[C@H](NC(=O)NNC(=O)[C@H](CC1CCCCC1)NC(=O)[C@@H](NC(=O)[C@H](CC(N)=O)NC(=O)[C@H](CCCCNC(=O)CN1CCN(CC(=O)O)CCN(CC(=O)O)CCN(CC(=O)O)CC1)NC(=O)[C@@H](Cc1ccc(O)cc1)NC(=O)CCOCCOCCNC(=O)CCc1ccc(I)cc1)[C@@H](C)O)C(=O)NC1(C(=O)N[C@@H](Cc2c[nH]c3ccccc23)C(N)=O)CCN(C(=N)N)CC1
B5: Compound 330 (peptide)
peptide: Palmitoyl-[dY]K(DOTA)NTF[azaGly]L[Api(1-amidino)]Y-NH2
SMILES: CCCCCCCCCCCCCCCC(=O)N[C@H](Cc1ccc(O)cc1)C(=O)N[C@@H](CCCCNC(=O)CN1CCN(CC(=O)O)CCN(CC(=O)O)CCN(CC(=O)O)CC1)C(=O)N[C@@H](CC(N)=O)C(=O)N[C@H](C(=O)N[C@@H](Cc1ccccc1)C(=O)NNC(=O)N[C@@H](CC(C)C)C(=O)NC1(C(=O)N[C@@H](Cc2ccc(O)cc2)C(N)=O)CCN(C(=N)N)CC1)[C@@H](C)O
B6: Compound 322 (peptide)
peptide: X6-[dY]K(DOTA)NTF[azaGly]L[Api(1-amidino)]F-NH2
SMILES: Cc1ccc(CCC(=O)NCCOCCOCCC(=O)N[C@H](Cc2ccc(O)cc2)C(=O)N[C@@H](CCCCNC(=O)CN2CCN(CC(=O)O)CCN(CC(=O)O)CCN(CC(=O)O)CC2)C(=O)N[C@@H](CC(N)=O)C(=O)N[C@H](C(=O)N[C@@H](Cc2ccccc2)C(=O)NNC(=O)N[C@@H](CC(C)C)C(=O)NC2(C(=O)N[C@@H](Cc3ccccc3)C(N)=O)CCN(C(=N)N)CC2)[C@@H](C)O)cc1
B7: Compound 302 (peptide)
peptide: {DOTA}-[d2Nal]NTF[azaGly]L[Api(1-amidino)]F-NH2
SMILES: CC(C)C[C@H](NC(=O)NNC(=O)[C@H](Cc1ccccc1)NC(=O)[C@@H](NC(=O)[C@H](CC(N)=O)NC(=O)[C@@H](Cc1ccc2ccccc2c1)NC(=O)CN1CCN(CC(=O)O)CCN(CC(=O)O)CCN(CC(=O)O)CC1)[C@@H](C)O)C(=O)NC1(C(=O)N[C@@H](Cc2ccccc2)C(N)=O)CCN(C(=N)N)CC1
B8: Compound 336 (peptide)
peptide: {DOTA-Ahx}-[dK](Butanoyl(4-(4-I-phenyl)))[dY][d2Nal]NTF[azaGly]L[Api(1-amidino)]W-NH2
SMILES: CC(C)C[C@H](NC(=O)NNC(=O)[C@H](Cc1ccccc1)NC(=O)[C@@H](NC(=O)[C@H](CC(N)=O)NC(=O)[C@@H](Cc1ccc2ccccc2c1)NC(=O)[C@@H](Cc1ccc(O)cc1)NC(=O)[C@@H](CCCCNC(=O)CCCc1ccc(I)cc1)NC(=O)CCCCCNC(=O)CN1CCN(CC(=O)O)CCN(CC(=O)O)CCN(CC(=O)O)CC1)[C@@H](C)O)C(=O)NC1(C(=O)N[C@@H](Cc2c[nH]c3ccccc23)C(N)=O)CCN(C(=N)N)CC1
B9: Compound 329 (peptide)
peptide: Lauroyl-[dY]K(DOTA)NTF[azaGly]L[Api(1-amidino)]W-NH2
SMILES: CCCCCCCCCCCC(=O)N[C@H](Cc1ccc(O)cc1)C(=O)N[C@@H](CCCCNC(=O)CN1CCN(CC(=O)O)CCN(CC(=O)O)CCN(CC(=O)O)CC1)C(=O)N[C@@H](CC(N)=O)C(=O)N[C@H](C(=O)N[C@@H](Cc1ccccc1)C(=O)NNC(=O)N[C@@H](CC(C)C)C(=O)NC1(C(=O)N[C@@H](Cc2c[nH]c3ccccc23)C(N)=O)CCN(C(=N)N)CC1)[C@@H](C)O
B10: Compound 325 (peptide)
peptide: X10-[dY]K(DOTA)NTF[azaGly]L[Api(1-amidino)][Phe(4-CN)]-NH2
SMILES: CC(C)C[C@H](NC(=O)NNC(=O)[C@H](Cc1ccccc1)NC(=O)[C@@H](NC(=O)[C@H](CC(N)=O)NC(=O)[C@H](CCCCNC(=O)CN1CCN(CC(=O)O)CCN(CC(=O)O)CCN(CC(=O)O)CC1)NC(=O)[C@@H](Cc1ccc(O)cc1)NC(=O)CCOCCOCCNC(=O)CCc1ccc(I)cc1)[C@@H](C)O)C(=O)NC1(C(=O)N[C@@H](Cc2ccc(C#N)cc2)C(N)=O)CCN(C(=N)N)CC1
B11: Compound 333 (peptide)
peptide: X6-[dY]K(DOTA)NTF[azaGly]L[Api(1-amidino)][Phe(4-CN)]-NH2
SMILES: Cc1ccc(CCC(=O)NCCOCCOCCC(=O)N[C@H](Cc2ccc(O)cc2)C(=O)N[C@@H](CCCCNC(=O)CN2CCN(CC(=O)O)CCN(CC(=O)O)CCN(CC(=O)O)CC2)C(=O)N[C@@H](CC(N)=O)C(=O)N[C@H](C(=O)N[C@@H](Cc2ccccc2)C(=O)NNC(=O)N[C@@H](CC(C)C)C(=O)NC2(C(=O)N[C@@H](Cc3ccc(C#N)cc3)C(N)=O)CCN(C(=N)N)CC2)[C@@H](C)O)cc1
B12: Compound 334 (peptide)
peptide: X10-[dY][dK](DOTA)NTF[azaGly]L[Api(1-amidino)]W-NH2
SMILES: CC(C)C[C@H](NC(=O)NNC(=O)[C@H](Cc1ccccc1)NC(=O)[C@@H](NC(=O)[C@H](CC(N)=O)NC(=O)[C@@H](CCCCNC(=O)CN1CCN(CC(=O)O)CCN(CC(=O)O)CCN(CC(=O)O)CC1)NC(=O)[C@@H](Cc1ccc(O)cc1)NC(=O)CCOCCOCCNC(=O)CCc1ccc(I)cc1)[C@@H](C)O)C(=O)NC1(C(=O)N[C@@H](Cc2c[nH]c3ccccc23)C(N)=O)CCN(C(=N)N)CC1
B13: Compound 305 (peptide)
peptide: {DOTA}-GY[Ahx]F[azaGly]L[X2]W-NH2
SMILES: Cc1ccc(CNCC(=O)N2CCC(NC(=O)[C@H](CC(C)C)NC(=O)NNC(=O)[C@H](Cc3ccccc3)NC(=O)CCCCCNC(=O)[C@H](Cc3ccc(O)cc3)NC(=O)CNC(=O)CN3CCN(CC(=O)O)CCN(CC(=O)O)CCN(CC(=O)O)CC3)(C(=O)N[C@@H](Cc3c[nH]c4ccccc34)C(N)=O)CC2)cc1F
B14: Compound 331 (peptide)
peptide: Lauroyl-[dY]K(DOTA)NTF[azaGly]L[Api(1-amidino)]Y-NH2
SMILES: CCCCCCCCCCCC(=O)N[C@H](Cc1ccc(O)cc1)C(=O)N[C@@H](CCCCNC(=O)CN1CCN(CC(=O)O)CCN(CC(=O)O)CCN(CC(=O)O)CC1)C(=O)N[C@@H](CC(N)=O)C(=O)N[C@H](C(=O)N[C@@H](Cc1ccccc1)C(=O)NNC(=O)N[C@@H](CC(C)C)C(=O)NC1(C(=O)N[C@@H](Cc2ccc(O)cc2)C(N)=O)CCN(C(=N)N)CC1)[C@@H](C)O
B15: Compound 328 (peptide)
peptide: Palmitoyl-[dY]K(DOTA)NTF[azaGly]L[Api(1-amidino)]W-NH2
SMILES: CCCCCCCCCCCCCCCC(=O)N[C@H](Cc1ccc(O)cc1)C(=O)N[C@@H](CCCCNC(=O)CN1CCN(CC(=O)O)CCN(CC(=O)O)CCN(CC(=O)O)CC1)C(=O)N[C@@H](CC(N)=O)C(=O)N[C@H](C(=O)N[C@@H](Cc1ccccc1)C(=O)NNC(=O)N[C@@H](CC(C)C)C(=O)NC1(C(=O)N[C@@H](Cc2c[nH]c3ccccc23)C(N)=O)CCN(C(=N)N)CC1)[C@@H](C)O
B16: Compound 326 (peptide)
peptide: X6-[dY]K(DOTA)NT[Cha][azaGly]L[Api(1-amidino)]W-NH2
SMILES: Cc1ccc(CCC(=O)NCCOCCOCCC(=O)N[C@H](Cc2ccc(O)cc2)C(=O)N[C@@H](CCCCNC(=O)CN2CCN(CC(=O)O)CCN(CC(=O)O)CCN(CC(=O)O)CC2)C(=O)N[C@@H](CC(N)=O)C(=O)N[C@H](C(=O)N[C@@H](CC2CCCCC2)C(=O)NNC(=O)N[C@@H](CC(C)C)C(=O)NC2(C(=O)N[C@@H](Cc3c[nH]c4ccccc34)C(N)=O)CCN(C(=N)N)CC2)[C@@H](C)O)cc1

Biological target: human kisspeptin receptor (KISS1R) (human), Q969F8
Experiment: radioligand competition, hKISS1R membranes; legend: A is <10 nM

Sequence of human kisspeptin receptor (KISS1R) (human), Q969F8 (Q969F8 whole entry): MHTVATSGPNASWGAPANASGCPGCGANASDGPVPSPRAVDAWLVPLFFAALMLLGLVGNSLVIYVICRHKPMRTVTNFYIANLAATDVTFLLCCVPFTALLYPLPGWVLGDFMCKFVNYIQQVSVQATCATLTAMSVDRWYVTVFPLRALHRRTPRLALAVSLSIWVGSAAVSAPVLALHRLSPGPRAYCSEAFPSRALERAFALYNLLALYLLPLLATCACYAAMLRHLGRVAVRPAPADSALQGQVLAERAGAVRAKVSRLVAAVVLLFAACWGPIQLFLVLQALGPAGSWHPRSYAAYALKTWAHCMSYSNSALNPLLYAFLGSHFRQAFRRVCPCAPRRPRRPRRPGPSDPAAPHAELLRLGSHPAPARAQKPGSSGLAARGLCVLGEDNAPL

Binder | Ki [nM]
B1 | < 10
B2 | < 10
B3 | < 10
B4 | < 10
B5 | < 10
B6 | < 10
{3‑(4-iodophenyl)propanoyl}-[dY]K(DOTA)NTF[azaGly]L[Api(1-amidino)]W-NH2 [Compound 321] | < 10
B7 | < 10
B8 | < 10
B9 | < 10
B10 | < 10
B11 | < 10
B12 | < 10
B13 | < 10
B14 | < 10
{DOTA-Ahx}-[dK](4‑(p-tolyl)butanoyl)[dY][d2Nal]NTF[azaGly]L[Api(1-amidino)]W-NH2 [Compound 335] | < 10
B15 | < 10
B16 | < 10
{3‑(4-iodophenyl)propanoyl}-[d(γGlu)][dY]K(DOTA)NTF[azaGly]L[Api(1-amidino)]W-NH2 [Compound 320] | < 10
